This test addresses 326^βB (TP0326 β-barrel construct with a C-terminal His-tag) (Treponema pallidum subspecies pallidum (Nichols-Farmington strain)). The test is described as follows: native gel or EMSA. A general note: In EMSA bound probe runs differently from free probe, usually more slowly.

A word on the stoichiometry N: it is the number of molecules, sites or subunits per partner or assembly.

In turn, “326^βB (TP0326 β-barrel construct with a C-terminal His-tag) (domain or fragment)” returned a stoichiometry N of 3.

For the origin of these results see PMC3115443.
